Assay results: article PMC10665668

Key:
[1] = target: class II sulfofructose-1-phosphate (SFP) aldolase from Yersinia aldovae (Yersinia aldovae); assay: SEC-MALS
[2] = target: class II sulfofructose-1-phosphate (SFP) aldolase from Hafnia paralvei (Hafnia paralvei); assay: SEC-MALS

class II sulfofructose-1-phosphate (SFP) aldolase from Yersinia aldovae (enzyme)
stoichiometry N [1]: 4

class II sulfofructose-1-phosphate (SFP) aldolase from Hafnia paralvei (enzyme)
stoichiometry N [2]: 4
